EP4707298A2 (INSTITUTO BUTANTAN, dated 2026)

B1: human anti-FGF2 antibody 85L117H (antibody, human IgG1, V domains shown)
VH: QVQLVQSGAELKRPGSSVKVSCRASGDTFKNYAITWVRQAPGQGLEWVGGIDPLVGVPNYTHRFQGRVTITADEPTSTTYMEFRDLTSDDTAVYYCARGVRDQHWSYFDSWGQGTLVTVSS
VL: QSVLTQPPSASGTPGQTVNISCSGATSNIGGGSVNWYQQLPGAAPRLLIHSDNERASGVPDRFSGSKSGTSASLAISGLQSEDEADYFCASWDDSLDGHVVFGGGTKVTVL
notes: Human IgG1 format (AbVec vectors with human gamma1 HC and lambda LC constant regions)
B2: human anti-FGF2 antibody 32L98H (antibody, part only; not given: light chain 32L, human IgG1, V domains shown, part only)
VH: QITLKESGPTLVKPTQTLTLTCTFSGFSLSTSGVGVGWIRQPPGEALEWLAVIHWNEANYYSPYLRSRLTITKDTSKNQMVLTVTNMDPVDTATYYCARGANSDSSGRLDAFDIWGQGTMVTVSS
B3: human anti-FGF2 antibody 62K98H (antibody, human IgG1, V domains shown)
VH: B2 VH
VL: DVVMTQSPLSLPVTLGQPASISCRSSQSLIYSDGNTRLYWFHQRPGQSPRRLIYGVSNRDSGVPDRFSGSGSGTDFTLKISRVEAEDVGVYYCMQSTHWPHTFGQGTKLEIK
notes: Human IgG1 format (AbVec vectors with human gamma1 HC and kappa LC constant regions)

What was measured:
[1] = biological target: T1, rFGF2 antigen (recombinant fibroblast growth factor 2) (UniProt P09038 143-288, limits assumed); assay: SPR kinetic affinity assay
T1 construct: also called FGF2 protein
T1 sequence (P09038 143-288 limits assumed): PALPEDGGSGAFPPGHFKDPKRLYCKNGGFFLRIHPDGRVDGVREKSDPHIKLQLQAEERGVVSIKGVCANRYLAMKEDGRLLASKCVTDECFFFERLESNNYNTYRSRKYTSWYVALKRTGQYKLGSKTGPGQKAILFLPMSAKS

[2] = biological target: rFGF2 antigen (recombinant fibroblast growth factor 2) (UniProt P09038); assay: SPR kinetic affinity assay
Sequence of rFGF2 antigen (recombinant fibroblast growth factor 2) (UniProt P09038) (P09038 143-288 limits assumed): as above

| Binder | Kd [1] | koff [1] | kon [1] | Kd [2] | koff [2] | kon [2] |
| --- | --- | --- | --- | --- | --- | --- |
| B1 | 17 nM | 0.000834 s⁻¹ | 49200 M⁻¹ s⁻¹ | – | – | – |
| B2 | – | – | – | 8.53 nM | 0.00326 s⁻¹ | 382000 M⁻¹ s⁻¹ |
| B3 | 9.1 nM | 0.00156 s⁻¹ | 171000 M⁻¹ s⁻¹ | – | – | – |
